The values below come from the RNAGym collection of RNA variant scans (doi:10.7554/elife.80360).

B1: HDV Ribozyme (parent)
chain: GGCCGGCAUGGUCCCAGCCUCCUCGCUGGCGCCGGCUGGGCAACAUUCCGAGGGGACCGUCCCCUCGGUAAUGGCGAAUGGGACCCA

Variants of B1 are the subject of the data set. Briefly: self-cleavage, relative activity (ratio to wild type); higher = more cleavage; co-transcriptional.
As for GGCCGGCAUGGUCCCAGCCUCCUCGCUGGCGCCGGCUGGGCAACAUUCCGAGGGGACCGUCCCCUCGGUAAUGGCGAAUGGGGCCAA, the self-cleavage is 0.941.

In the case of GGCCGGCAUGGUCCCAGCCUCCUCGCUGGCGCCGGCUGGGCAACAUUCCGAGGGGACCGUCCCCUCGGUAAUGGCGAAUGGCACCGA, the self-cleavage was found to be 0.194.

On to GGCCGGCAUGGUCCCAGCCUCCUCGCUGGCGCCGGCUGGGCAACAUUCCGAGGGGACCGUCCCCUCGGUAAUGGCGAAUGUGACCCC, for which the self-cleavage is 0.444.

Take GGCCGGCAUGGUCCCAGCCUCCUCGCUGGCGCCGGCUGGGCAACAUUCCGAGGGGACCGUCCCCUCGGUAAUGGCGAAUGUGACCCG: the self-cleavage worked out at 0.291.

Take GGCCGGCAUGGUCCCAGCCUCCUCGCUGGCGCCGGCUGGGCAACAUUCCGAGGGGACCGUCCCCUCGGUAAUGGCGAAUGGGAACCA: the self-cleavage turned out to be 0.895.

For the variant GGCCGGCAUGGUCCCAGCCUCCUCGCUGGCGCCGGCUGGGCAACAUUCCGAGGGGACCGUCCCCUCGGUAAUGGCGAAUGGGAGCCA, the self-cleavage was 0.688.

GGCCGGCAUGGUCCCAGCCUCCUCGCUGGCGCCGGCUGGGCAACAUUCCGAGGGGACCGUCCCCUCGGUAAUGGCGAAUGGAACCAA: the self-cleavage is 0.729.

Take GGCCGGCAUGGUCCCAGCCUCCUCGCUGGCGCCGGCUGGGCAACAUUCCGAGGGGACCGUCCCCUCGGUAAUGGCGAAUGGAACCUA: the self-cleavage was 0.522.

With GGCCGGCAUGGUCCCAGCCUCCUCGCUGGCGCCGGCUGGGCAACAUUCCGAGGGGACCGUCCCCUCGGUAAUGGCGAAUGGGUCCCG, the self-cleavage was found to be 0.531.

Take GGCCGGCAUGGUCCCAGCCUCCUCGCUGGCGCCGGCUGGGCAACAUUCCGAGGGGACCGUCCCCUCGGUAAUGGCGAAUGGGUCCCC: the self-cleavage is 0.751.

Consider GGCCGGCAUGGUCCCAGCCUCCUCGCUGGCGCCGGCUGGGCAACAUUCCGAGGGGACCGUCCCCUCGGUAAUGGCGAAUGGGUCCCU, for which the self-cleavage is 0.507.

Take GGCCGGCAUGGUCCCAGCCUCCUCGCUGGCGCCGGCUGGGCAACAUUCCGAGGGGACCGUCCCCUCGGUAAUGGCGAAUGGCACCCC: the self-cleavage came out at 0.28.

On to GGCCGGCAUGGUCCCAGCCUCCUCGCUGGCGCCGGCUGGGCAACAUUCCGAGGGGACCGUCCCCUCGGUAAUGGCGAAUGGCACCCG, for which the self-cleavage amounted to 0.185.

Turning to GGCCGGCAUGGUCCCAGCCUCCUCGCUGGCGCCGGCUGGGCAACAUUCCGAGGGGACCGUCCCCUCGGUAAUGGCGAAUGGGAACAA, the self-cleavage was 0.712.

Regarding GGCCGGCAUGGUCCCAGCCUCCUCGCUGGCGCCGGCUGGGCAACAUUCCGAGGGGACCGUCCCCUCGGUAAUGGCGAAUGGUAACCA, the self-cleavage worked out at 0.261.

Consider GGCCGGCAUGGUCCCAGCCUCCUCGCUGGCGCCGGCUGGGCAACAUUCCGAGGGGACCGUCCCCUCGGUAAUGGCGAAUGGUAUCCA, for which the self-cleavage is 0.133.

GGCCGGCAUGGUCCCAGCCUCCUCGCUGGCGCCGGCUGGGCAACAUUCCGAGGGGACCGUCCCCUCGGUAAUGGCGAAUGGAACCCC: the self-cleavage turned out to be 0.583.

Take GGCCGGCAUGGUCCCAGCCUCCUCGCUGGCGCCGGCUGGGCAACAUUCCGAGGGGACCGUCCCCUCGGUAAUGGCGAAUGGAACCCG: the self-cleavage is 0.342.

Turning to GGCCGGCAUGGUCCCAGCCUCCUCGCUGGCGCCGGCUGGGCAACAUUCCGAGGGGACCGUCCCCUCGGUAAUGGCGAAUGGAACCCU, the self-cleavage was 0.443.

On to GGCCGGCAUGGUCCCAGCCUCCUCGCUGGCGCCGGCUGGGCAACAUUCCGAGGGGACCGUCCCCUCGGUAAUGGCGAAUGGAUCCCA, for which the self-cleavage was 0.376.

As for GGCCGGCAUGGUCCCAGCCUCCUCGCUGGCGCCGGCUGGGCAACAUUCCGAGGGGACCGUCCCCUCGGUAAUGGCGAAUGUGAGCCA, the self-cleavage turned out to be 0.0923.

With GGCCGGCAUGGUCCCAGCCUCCUCGCUGGCGCCGGCUGGGCAACAUUCCGAGGGGACCGUCCCCUCGGUAAUGGCGAAUGUGAUCCA, the self-cleavage came to 0.228.

As to GGCCGGCAUGGUCCCAGCCUCCUCGCUGGCGCCGGCUGGGCAACAUUCCGAGGGGACCGUCCCCUCGGUAAUGGCGAAUGGUCCCCA, the self-cleavage was 0.18.

GGCCGGCAUGGUCCCAGCCUCCUCGCUGGCGCCGGCUGGGCAACAUUCCGAGGGGACCGUCCCCUCGGUAAUGGCGAAUGGAACGCA: the self-cleavage was 0.339.

Regarding GGCCGGCAUGGUCCCAGCCUCCUCGCUGGCGCCGGCUGGGCAACAUUCCGAGGGGACCGUCCCCUCGGUAAUGGCGAAUGGGAACCG, the self-cleavage was found to be 0.61.

In the case of GGCCGGCAUGGUCCCAGCCUCCUCGCUGGCGCCGGCUGGGCAACAUUCCGAGGGGACCGUCCCCUCGGUAAUGGCGAAUGGGCCGCA, the self-cleavage stood at 0.175.

In the case of GGCCGGCAUGGUCCCAGCCUCCUCGCUGGCGCCGGCUGGGCAACAUUCCGAGGGGACCGUCCCCUCGGUAAUGGCGAAUGGGCCUCA, the self-cleavage turned out to be 0.268.

Take GGCCGGCAUGGUCCCAGCCUCCUCGCUGGCGCCGGCUGGGCAACAUUCCGAGGGGACCGUCCCCUCGGUAAUGGCGAAUGGGCCACA: the self-cleavage was 0.534.

Regarding GGCCGGCAUGGUCCCAGCCUCCUCGCUGGCGCCGGCUGGGCAACAUUCCGAGGGGACCGUCCCCUCGGUAAUGGCGAAUGGGGACCA, the self-cleavage came out at 1.02.

Regarding GGCCGGCAUGGUCCCAGCCUCCUCGCUGGCGCCGGCUGGGCAACAUUCCGAGGGGACCGUCCCCUCGGUAAUGGCGAAUGGGGGCCA, the self-cleavage stood at 0.95.

On to GGCCGGCAUGGUCCCAGCCUCCUCGCUGGCGCCGGCUGGGCAACAUUCCGAGGGGACCGUCCCCUCGGUAAUGGCGAAUGGGUCGCA, for which the self-cleavage is 0.208.

Consider GGCCGGCAUGGUCCCAGCCUCCUCGCUGGCGCCGGCUGGGCAACAUUCCGAGGGGACCGUCCCCUCGGUAAUGGCGAAUGGGUCACA, for which the self-cleavage stood at 0.237.
